In publication PMC10228819, “Changing course: Glucose starvation drives nuclear accumulation of Hexokinase 2 in S. cerevisiae” (PLOS Genetics, 2023):

Experiments:
[1] = target: Hxk2 (hexokinase 2, ScHxk2) (UniProt P04807); test: size exclusion chromatography; settings: reference: wild type Hxk2, no glucose; sites S15
[2] = target: the molecule itself; test: SEC; TOSOH G2000 SWXL column on HPLC; 40 μg protein in 50 μl; hexokinase buffer (20 mM HEPES, 5 mM Mg acetate, 100 mM NaCl, 0.5 mM EDTA, 0.5 mM DTT) without glucose, no ATP; 1 mL/min

Molecule | other: SEC elution volume [1] | stoichiometry N [2]
Hxk2 (hexokinase 2, ScHxk2) (from UniProt P04807) Hxk2 S15D, no glucose | lost; reference ~8.8 | 
Recombinant Hxk2, wild type, with C-terminal 6-histidine tag (enzyme, S. cerevisiae, Hexokinase 2 (Hxk2), S. cerevisiae, cloned into pET14b; also called WT Hxk2; purified Hxk2; source: E. coli, purified (Ni-NTA)) MVHLGPKKPQARKGSMADVPKELMQQIENFEKIFTVPTETLQAVTKHFISELEKGLSKKGGNIPMIPGWVMDFPTGKESGDFLAIDLGGTNLRVVLVKLGGDRTFDTTQSKYRLPDAMRTTQNPDELWEFIADSLKAFIDEQFPQGISEPIPLGFTFSFPASQNKINEGILQRWTKGFDIPNIENHDVVPMLQKQITKRNIPIEVVALINDTTGTLVASYYTDPETKMGVIFGTGVNGAYYDVCSDIEKLQGKLSDDIPPSAPMAINCEYGSFDNEHVVLPRTKYDITIDEESPRPGQQTFEKMSSGYYLGEILRLALMDMYKQGFIFKNQDLSKFDKPFVMDTSYPARIEEDPFENLEDTDDLFQNEFGINTTVQERKLIRRLSELIGARAARLSVCGIAAICQKRGYKTGHIAADGSVYNRYPGFKEKAANALKDIYGWTQTSLDDYPIKIVPAEDGSGAGAAVIAALAQKRIAEGKSVGIIGA |  | 2
